In patent US20100168016A1, “DIAGNOSIS AND TREATMENT OF DISEASES CAUSED BY MISFOLDED PROTEINS” (THE JACKSON LABORATORY, priority 2007, published 2010):

Columns and labels:
[1] = tested on: mouse embryonic fibroblasts; experiment: epoximicin-induced cell death of mouse embryonic fibroblasts (propidium iodide, FACS); type: cell-based; settings: epoximicin 400 nM to 2500 nM for 18 hours
Procedure: FIG. 14. […] Fibroblasts with different genotypes were compared: WT means C57BL/6J; UbG76VGFP transgenic and ANKRD16^CAST UbG76V-GFP double transgenic.
Mouse embryonic fibroblasts were treated with 1.5 uM epoximicin for 6 hours before the GFP (green fluorescent protein) levels were analyzed by fluorescence microscopy (data not shown) or fluorescence-activated cell sorting (FACS) analysis (FIG. 13). Mouse embryonic fibroblasts not expressing the ANKRD16^CAST allele show a higher GFP level. […] The proteasome inhibitor epoximicin prevents the rapid degradation of GFP in the proteasome. […] Further the embryonic fibroblasts from the C57BL/6J wild type (WT), UbG76V-GFP transgenic and UbG76V-GFP; ANKRD16^CAST double transgenic mice were treated with various concentrations of epoximicin for 18 hours. The epoximicin concentrations ranged from 400 nM to 2500 nM (see FIG. 14). Fibroblasts were stained with propidium iodide to evaluate the percentage of cell death by FACS analysis.

[2] = tested on: sti/sti embryonic fibroblasts; experiment: serine-induced cell death in embryonic fibroblasts; type: cell-based, mouse; settings: ANKRD16^CAST/+; sti/sti fibroblasts vs sti/sti, increasing serine
Excerpt: FIG. 5. A graph depicting viability curves for mouse embryonic fibroblasts (MEFs) with increasing concentrations of serine in the culture media. ANKRD 16 (Stim^CAST) rescues serine-mediated cell death in sti/sti fibroblasts.
We analyzed serine-induced cell death in +/+, ANKRD16^CAST/+; sti/sti, and sti/sti embryonic fibroblasts. Mouse embryonic fibroblasts were isolated from mouse embryos carrying no mutation (WT; C57BL/6J), the CAST-derived ANKRD16 gene (ANKRD16^CAST/+) and the sticky (sti/sti) mutation, or carrying the C57BL/6 ANKRD16 gene and the sti mutation (sti/sti).

sticky mutant mice = experiment: fertility (number of live offspring) of sticky mutant mice; type: in vivo, mouse; settings: ANKRD16^CAST crossed into sti/sti; 7 matings, females 8-9 weeks
Procedure: FIGS. 7. A graph depicting litter size (y axis) in WT, STIM and STI mice (x axis). Expression of ANKRD16 protein can restore the reduced fertility in sticky mutant mice. “WT” refers to C57BL/6J wild type mice, “STIM” refers to sticky mutant mice carrying the modifier gene ANKRD16, and STI means homozygous sticky mutant mice.
Female mice of the various genotypes at the age of at 8-9 weeks were mated and the fertility was determined by counting the number of live offspring. When mating C57BL/6J mice (WT), which are wild type, the average litter size was 6.87 from 8 matings with a total of 55 offspring. […] When the modifier gene ANKRD16^CAST was crossed into the sti/sti mutations, the litter size was restored to normal with 6.51 pups from 7 matings with a total of 46 offspring. […] The CAST ANKRD16 is the full length version of ANKRD16, also called ANKRD^361.

sti/sti Purkinje cells [3] = experiment: Purkinje cell survival in sti/sti mice carrying the Pcp2-driven ANKRD16 transgene; type: in vivo, mouse
Excerpt: To determine if ANKRD16 can rescue neuron death in a cell autonomous fashion, we transgenically expressed the ANKRD16 cDNA in Purkinje cells and examined the role of this transgene in Purkinje cell survival in sti/sti mice. ANKRD16 coding sequence was amplified by polymerase chain reaction from cDNA by using Pfu DNA polymerase (Stratagene), purified by agarose gel electrophoresis and ligated into the expression vector. Transgenic (TgPcp2-ANKRD16) mice carrying the full-length ANKRD16 cDNA (ANKRD16^361 or CAST allele) were generated on the inbred C57BL/6J background by microinjection of the purified DNA into C57BL/6J zygotes.

[4] = tested on: ubiquitin/proteasome pathway; experiment: UbG76V-GFP proteasome reporter in mouse embryonic fibroblasts (FACS); type: cell-based; settings: ANKRD16^CAST double transgenic fibroblasts, 1.5 uM epoximicin for 6 hours
Procedure: FIG. 13. […] Mouse embryonic fibroblasts were analyzed from UbG76V-GFP transgenic and UbG76V-GFP; ANKRD16^CAST double transgenic mice; untreated and treated with 1000 nM epoximicin for 6; 12 or 18 hours (hr). The presence of the ANKRD16^CAST allele leads to reduced GFP intensity which correlates with increased proteasome activity.
Two lines of transgenic mice, UB^G76V-1 and UB^G76V-2, were generated with a ubiquitin-fusion GFP driven by the chicken β-actin promoter (Lindsten et al., 2003a; Lindsten et al., 2003b). UbG76V-GFP transgenic mice are available from The Jackson Laboratory (stock number 008111 and 008112). These mice ubiquitously express transcripts for the transgene, but as expected from the short half-life of the modified GFP protein, GFP is undetectable in all tissues analyzed. […]
UbG76V-GFP transgenic mice were intercrossed with the BAC transgenic mice carrying the CAST allele of ANKRD16, which gives rise to full length ANKRD16 mRNA and protein, yielding in double transgenic called UbG76V-GFP; ANKRD16^CAST. […] Using Western blot analysis the expression of ANKRD16 was analyzed showing an upregulation of ANKRD16 in the double transgenic mice UbG76V-GFP; ANKRD16 6^CAST. […]

sti/sti Purkinje cells [5] = experiment: ubiquitinated protein inclusions in sti/sti Purkinje cells; type: in vivo, mouse; settings: sti/sti mice, 4, 6 and 12 weeks of age
Excerpt: FIGS. 9A and B. Graphs illustrating that the expression of full length ANKRD16 reduces protein inclusions in sti/sti Purkinje cells. Sti/sti means homozygous sticky mice (B6.Cg-Aarssti/J). ANKRD16; sti/sti means homozygous sticky mice intercrossed with mice expressing full length ANKRD16. […] 4W means brains were isolated from 4 week old mice, 6W for 6 week old mice and 12 W for 12 week old mice.
Brains from homozygous sticky mice (sti/sti; B6.Cg-Aarssti/J; available from The Jackson Laboratory Stock Number 002560) and sticky mice intercrossed with transgenic mice expressing the full length ANKRD16, were isolated at the age of 4 weeks, 6 weeks and 12 weeks. The brains were processed for sectioning and antibody staining using standard histological methods. Sagittal sections were prepared and immunostained with antibodies against ubiquitin and calbindin. The antibodies against calbidin D-28 were used to visualize Purkinje cells. The antibodies against ubiquitin were used to visualize ubiquitinated protein aggregates. Purkinje cells with ubiquitinated aggregates were counted from three sections spaced at 100 micrometer beginning at midline and working laterally per mouse. Three mice from each genotype were analyzed. The total number of Purkinje cells with inclusions as well as the % of remaining Purkinje cells with inclusions are shown in the graphs in FIGS. 9A and 9B.

B1: ANKRD16^CAST: full length (361 amino acid) ANKRD16 from the CAST allele, expressed from congenic region or transgene in mice and cells (protein)
chain: MALPGDPRRLCRLVQEGRLRDLQEELAVARGCRGPAGDTLLHCAARHGRQDILAYLVEAWSMDIEATNRDYKRPLHEAASMGHRDCVRYLLGRGAVVDSLKKADWTPLMMACTRKNLDVIQDLVEHGANPLLKNKDGWNSFHIASREGHPVILRYLLTVCPDAWKTESNIRRTPLHTAAMHGCLEAVQVLLERCHYEPDCRDNCGVTPFMDAIQCGHVSIAKLLLEQHKACSSAADSMGAQALHRAAVTGQDEAIRFLVCGLGIDVDVRAKSSQLTALHYAAKEGQTNTVQTLLSLGADINSTDERNRSVLHLACAGQHVACTRLLLQSGLKDSADLTGTLAQQLMRSVDILQDFDHDVKS
B1 was tested, and the cell death [1] was “reduced cell death”, the “rescue from serine-induced cell death” value [2] was “completely rescued” and the litter size (sticky mutant mice) was 6.51 pups. For the same molecule, the ataxia (sti/sti Purkinje cells [3]; sti/sti mice carrying the transgene, 3 months of age) was “no signs of ataxia”, the “Purkinje cell death (calbindin D-28 immunohistochemistry)” value (sti/sti Purkinje cells [3]; sti/sti mice, Pcp2 (L7) promoter) was “suppression of Purkinje cell death” and the “green fluorescence from GFP” value [4] was “greatly reduced”. The “Purkinje cells with protein aggregates” value (sti/sti Purkinje cells [5]) was “reduces Purkinje cells with protein aggregates”.
